Experiment in all cases: Kinetic parameters for peptide phosphorylation, radioactive filter-binding assay
Substrate in data set [1]: CC(C)C[C@H](NC(=O)[C@H](CCCNC(=N)N)NC(=O)[C@H](CCCNC(=N)N)NC(=O)[C@@H](N)CCCNC(=N)N)C(=O)N[C@@H](CO)C(=O)N[C@@H](Cc1ccccc1)C(=O)N[C@@H](C)C(=O)N[C@@H](CCC(=O)O)C(=O)N1CCC[C@H]1C(=O)NCC(=O)O
The data set is classed as biochemical, bovine. To be noted: other: PKG; Standard Substrate = …; 30.0 °C. From the text: (§1) Apart from the AMP-activated protein kinase (AMPK, a gift from Drs S. Hawley and D. G. Hardie), cGMP-dependent protein kinase (PKG, a generous gift from Drs Susan Lohmann and Ulrich Walter, University of Wurzburg, Germany) and the catalytic subunit of cyclic AMP-dependent protein kinase (PKA, a gift from Dr C. Smythe), which were isolated from rat liver, bovine lung and bovine heart, respectively, all other protein kinases were expressed as either GST-fusion or His-tagged proteins (by a person, a person, Dr A. Paterson or a person, in this Division). The expressed proteins all corresponded to the human sequences apart from the rat Rho-dependent protein kinase (ROCK-II) and rat mitogen-activated protein kinase (MAPK) activated kinase-1a (MAPKAP-K1a, also called RSK). […]
(§2) All protein kinase assays were linear with respect to time. […] All papers were subsequently washed a further three times in phosphoric acid, once in acetone, then dried and counted for radioactivity. […] The plates were then washed six times (five min per wash) in PBS, 0.1% Tween 20 and binding of the phospho-specific antibody detected by incubating the plates with peroxidase-conjugated anti-sheep antibodies (Pierce). […] Signals were quantitated on LAS-1000IR software (FujiFilm). […]

Substrate in data set [2]: CC(C)C[C@H](NC(=O)[C@H](CCCCN)NC(=O)[C@@H](N)CCCCN)C(=O)N[C@@H](CC(N)=O)C(=O)N[C@@H](CCCNC(=N)N)C(=O)N[C@H](C(=O)N[C@@H](CC(C)C)C(=O)N[C@@H](CO)C(=O)N[C@@H](Cc1ccccc1)C(=O)N[C@@H](C)C(=O)N[C@@H](CCC(=O)O)C(=O)N1CCC[C@H]1C(=O)NCC(=O)O)[C@@H](C)O
The class given is biochemical, human. To be noted: 30.0 °C.
From the text: as §1, with “RSK). GST-fusion proteins were purified on GSH-agarose (Amersham Pharmacia Biotech, Amersham, UK) and His-tagged proteins on Ni-NTA agarose (Qiagen) essentially according to the manufacturer's instructions. All the protein kinases used in this study are available from Upstate Biotechnology Inc. (Lake Placid, N.Y., USA), apart from the α-isoform of calmodulin-dependent protein kinase II (CaMKII), MAPKAP-K3 and PKG.” for “RSK).”
as §2

Substrate in data set [3]: CC(C)C[C@H](NC(=O)[C@@H](NC(=O)[C@H](CCCNC(=N)N)NC(=O)[C@H](C)NC(=O)[C@@H](N)CCCNC(=N)N)[C@@H](C)O)C(=O)N[C@@H](CO)C(=O)N[C@@H](Cc1ccccc1)C(=O)N[C@@H](C)C(=O)N[C@@H](CCC(=O)O)C(=O)N1CCC[C@H]1C(=O)NCC(=O)O
The class given is biochemical, human. To be noted: other: PRAK; Standard Substrate = …; 30.0 °C.
From the text: as §1, with “RSK). GST-fusion proteins were purified on GSH-agarose (Amersham Pharmacia Biotech, Amersham, UK) and His-tagged proteins on Ni-NTA agarose (Qiagen) essentially according to the manufacturer's instructions. All the protein kinases used in this study are available from Upstate Biotechnology Inc. (Lake Placid, N.Y., USA), apart from the α-isoform of calmodulin-dependent protein kinase II (CaMKII), MAPKAP-K3 and PKG.” for “RSK).”
as §2

The source of these data is patent US7727950B2, “Methods and reagents for assaying protein kinase activity” (The University of Dundee, priority 2002, dated 2010).

Usually Km stands for the substrate concentration at which the rate is half of its maximum.

B1: PKG (Bos taurus) (protein)
chain: MSELEEDFAKILMLKEERIKELEKRLSEKEEEIQELKRKLHKCQSVLPVPSTHIGPRTTRAQGISAEPQTYRSFHDLRQAFRKFTKSERSKDLIKEAILDNDFMKNLELSQIQEIVDCMYPVEYGKDSCIIKEGDVGSLVYVMEDGKVEVTKEGVKLCTMGPGKVFGELAILYNCTRTATVKTLVNVKLWAIDRQCFQTIMMRTGLIKHTEYMEFLKSVPTFQSLPEEILSKLADVLEETHYENGEYIIRQGARGDTFFIISKGKVNVTREDSPNEDPVFLRTLGKGDWFGEKALQGEDVRTANVIAAEAVTCLVIDRDSFKHLIGGLDDVSNKAYEDAEAKAKYEAEAAFFANLKLSDFNIIDTLGVGGFGRVELVQLKSEESKTFAMKILKKRHIVDTRQQEHIRSEKQIMQGAHSDFIVRLYRTFKDSKYLYMLMEACLGGELWTILRDRGSFEDSTTRFYTACVVEAFAYLHSKGIIYRDLKPENLILDHRGYAKLVDFGFAKKIGFGKKTWTFCGTPEYVAPEIILNKGHDISADYWSLGILMYELLTGSPPFSGPDPMKTYNIILRGIDMIEFPKKIAKNAANLIKKLCRDNPSERLGNLKNGVKDIQKHKWFEGFNWEGLRKGTLTPPIIPSVASPTDTSNFDSFPEDNDEPPPDDNSGWDIDF
notes: which were isolated from rat liver, bovine lung and bovine heart, respectively; from tissue; host or cells: bovine lung
B1: the Km in data set [1] worked out at 50 µM.

B2: SGK1 (Homo sapiens; S422D) (protein)
chain: ISQPQEPELMNANPSPPPSPSQQINLGPSSNPHAKPSDFHFLKVIGKGSFGKVLLARHKAEEVFYAVKVLQKKAILKKKEEKHIMSERNVLLKNVKHPFLVGLHFSFQTADKLYFVLDYINGGELFYHLQRERCFLEPRARFYAAEIASALGYLHSLNIVYRDLKPENILLDSQGHIVLTDFGLCKENIEHNSTTSTFCGTPEYLAPEVLHKQPYDRTVDWWCLGAVLYEMLYGLPPFYSRNTAEMYDNILNKPLQLKPNITNSARHLLEGLLQKDRTKRLGAKDDFMEIKSHVFFSLINWDDLINKKITPPFNPNVSGPNDLRHFDPEFTEEPVPNSIGKSPDSVLVTASVKEAAEAFLGFDYAPPTDSFL
notes: made in house; host or cells: Sf21 insect cells
As to B2, the Km in data set [2] (other: SGK1, Standard Substrate = …) amounted to 4 µM.

B3: PRAK (Homo sapiens) (protein)
chain: MSEESDMDKAIKETSILEEYSINWTQKLGAGISGPVRVCVKKSTQERFALKILLDRPKARNEVRLHMMCATHPNIVQIIEVFANSVQFPHESSPRARLLIVMEMMEGGELFHRISQHRHFTEKQASQVTKQIALALRHCHLLNIAHRDLKPENLLFKDNSLDAPVKLCDFGFAKIDQGDLMTPQFTPYYVAPQVLEAQRRHQKEKSGIIPTSPTPYTYNKSCDLWSLGVIIYVMLCGYPPFYSKHHSRTIPKDMRRKIMTGSFEFPEEEWSQISEMAKDVVRKLLKVKPEERLTIEGVLDHPWLNSTEALDNVLPSAQLMMDKAVVAGIQQAHAEQLANMRIQDLKVSLKPLHSVNNPILRKRKLLGTKPKDSVYIHDHENGAEDSNVALEKLRDVIAQCILPQAGKGENEDEKLNEVMQEAWKYNRECKLLRDTLQSFSWNGRGFTDKVDRLKLAEIVKQVIEEQTTSHESQ
notes: as for B2
With B3, the Km in data set [3] was 40 µM.

B4: S6K1 (Homo sapiens; T412E) (protein)
chain: MRRRRRRDGFYPAPDFRDREAEDMAGVFDIDLDQPEDAGSEDELEEGGQLNESMDHGGVGPYELGMEHCEKFEISETSVNRGPEKIRPECFELLRVLGKGGYGKVFQVRKVTGANTGKIFAMKVLKKAMIVRNAKDTAHTKAERNILEEVKHPFIVDLIYAFQTGGKLYLILEYLSGGELFMQLEREGIFMEDTACFYLAEISMALGHLHQKGIIYRDLKPENIMLNHQGHVKLTDFGLCKESIHDGTVTHTFCGTIEYMAPEILMRSGHNRAVDWWSLGALMYDMLTGAPPFTGENRKKTIDKILKCKLNLPPYLTQEARDLLKKLLKRNAASRLGAGPGDAGEVQAHPFFRHINWEELLARKVEPPFKPLLQSEEDVSQFDSKFTRQTPVDSPDDSTLSESANQVFLGFEYVAPSVLES
notes: as for B2
As to B4, the Km in data set [2] (other: S6K1, Standard Substrate = LRRASLG) came out at 6 µM.
